Source: patent publication US20220306751A1 (MYTHIC THERAPEUTICS, published 2022)

T1: CD123 Protein, His Tag, Acro Biosciences Cat. No. ILA-H52H6 (Homo sapiens (Human), UniProt P26951 19-305)
T1 construct: Bought protein; not shown: His tag
T1 sequence: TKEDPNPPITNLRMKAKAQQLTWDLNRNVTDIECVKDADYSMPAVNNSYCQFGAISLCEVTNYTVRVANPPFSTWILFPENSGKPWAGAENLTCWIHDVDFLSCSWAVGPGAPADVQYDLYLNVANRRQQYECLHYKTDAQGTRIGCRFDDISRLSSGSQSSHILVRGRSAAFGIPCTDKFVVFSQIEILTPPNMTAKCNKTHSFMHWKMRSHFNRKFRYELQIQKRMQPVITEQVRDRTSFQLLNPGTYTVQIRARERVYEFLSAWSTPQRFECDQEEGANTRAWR


Biological target: T1, CD123 Protein, His Tag, Acro …
Assay: BLI, IgG on anti-human Fc sensor, 50 nM CD123, pH 7.4 and pH 5.4
Description: We selected IMGN632 (Heavy chain SEQ ID NO: 1, Light chain SEQ ID NO: 2) as a CD123-binding monoclonal antibody for pH engineering via histidine scanning. Briefly, CDRs in the heavy chain were identified using the methods described by Kabat et al (Kabat et al. (1992) Sequences of Proteins of Immunological Interest, DIANE publishing) and IMGT (Lefranc M P (1999) “The IMGT unique numbering for Immunoglobulins, T cell receptors and Ig-like domains” The Immunologist 7, 132-136), and for each CDR, residues falling under either or both Kabat and IMGT CDR definitions were called as CDR residues. To generate pH-dependent sequence variants, individual amino acid residues within the heavy chain CDRs were systematically substituted with a histidine, one at a time (MYT1252-MYT1292). In cases where the starting CDR residue was a histidine, it was mutated to an alanine. Antibody variants with only one histidine or alanine mutation in a heavy chain CDR were generated by co-transfection of Expi293 cells with a) one heavy chain sequence variant, and b) the corresponding starting ABPC light chain using methods known to the art. After allowing for four days of protein expression, cell culture supernatants were collected, quantified by SDS-PAGE analysis (FIG. 1), and the pH dependence of the variant was evaluated using biolayer interferometry (BLI) on an Octet RED 384 instrument. For constructs MYT1252, MYT1254-MYT1287, and MYT1289-1292, 104, of cell culture supernatant was diluted into 1904, of 1× PBST pH 7.4. For MYT1253 and MYT1288 254, and 504, of cell culture supernatant was diluted into 1754, and 1504, respectively. […] The resulting diluted supernatants were then captured on an anti-human Fc sensor (Forte Bio). A baseline was established using 1× PBST (50 mM Potassium Phosphate Buffer+150 mM NaCl+0.05% Tween 20) pH 7.4, and the sensor was associated with 50 nM of CD123 (CD123 Protein, His Tag, Acro Biosciences Cat. No. ILA-H52H6, Lot No. 1741d-89CF1-KB) in 1×PBST pH 7.4 for 120 sec to generate an association curve. In the dissociation phase, the antibody-antigen complex on the sensor was exposed to 1× PBST pH 7.4 for 300-600 sec. Baseline, association, and dissociation were repeated using 1×PBST pH 5.4 throughout in a separate condition.

Binder	binding result
MYT1290 (antibody, V domains shown, IgG) VH: QVQLVQSGAEVKKPGASVKVSCKASGYIFTSSIMHWVRQAPGQGLEWIGYIKPYNDGTKYNEKFKGRATLTSDRSTSTAYMELSSLRSEDTAVYYCAREGGNDYYDTHDYWGQGTLVTVSS VL: DIQMTQSPSSLSASVGDRVTITCRASQDINSYLSWFQQKPGKAPKTLIYRVNRLVDGVPSRFSGSGSGNDYTLTISSLQPEDFATYYCLQYDAFPYTFGQGTKVEIK	binds
MYT2756 (antibody, V domains shown, IgG) VH: QVQLVQSGAEVKKPGASVKVSCKASGHIFTSSIMHWVRQAPGQGLEWIGYIKPYNDGTKYNEKFKGRATLTSDRSTSTAYMELSSLRSEDTAVYYCAREGGNDYYDTMHYWGQGTLVTVSS VL: DIQMTQSPSSLSASVGDRVTITCRASQDINSYLSWFQQKPGKAPKTLIYRVNRLVDGVPSRFSGSGSGNDYTLTISSLQPEDFATYYCLQYDAFPYTFGQGTKVEIK	binds
MYT1292 (antibody, V domains shown, IgG) VH: QVQLVQSGAEVKKPGASVKVSCKASGYIFTSSIMHWVRQAPGQGLEWIGYIKPYNDGTKYNEKFKGRATLTSDRSTSTAYMELSSLRSEDTAVYYCAREGGNDYYDTMDHWGQGTLVTVSS VL: DIQMTQSPSSLSASVGDRVTITCRASQDINSYLSWFQQKPGKAPKTLIYRVNRLVDGVPSRFSGSGSGNDYTLTISSLQPEDFATYYCLQYDAFPYTFGQGTKVEIK	binds
MYT2760 (antibody, V domains shown, IgG) VH: QVQLVQSGAEVKKPGASVKVSCKASGYIFTSSIMHWVRQAPGQGLEWIGYIKPYNDGTKYNEKFKGRATLTSDRSTSTAYMELSSLRSEDTAVYYCAREGGNDYHDHMDYWGQGTLVTVSS VL: DIQMTQSPSSLSASVGDRVTITCRASQDINSYLSWFQQKPGKAPKTLIYRVNRLVDGVPSRFSGSGSGNDYTLTISSLQPEDFATYYCLQYDAFPYTFGQGTKVEIK	binds
MYT2759 (antibody, V domains shown, IgG) VH: QVQLVQSGAEVKKPGASVKVSCKASGYIFTSSIMAWVRQAPGQGLEWIGYIKPYNDGTKYNEKFKGRATLTSDRSTSTAYMELSSLRSEDTAVYYCAREGGNDYYDTMHYWGQGTLVTVSS VL: DIQMTQSPSSLSASVGDRVTITCRASQDINSYLSWFQQKPGKAPKTLIYRVNRLVDGVPSRFSGSGSGNDYTLTISSLQPEDFATYYCLQYDAFPYTFGQGTKVEIK	binds
MYT2757 (antibody, V domains shown, IgG) VH: QVQLVQSGAEVKKPGASVKVSCKASGYIFTSSIMAWVRQAPGQGLEWIGYIKPYNDGTKYNEKFKGRATLTSDRSTSTAYMELSSLRSEDTAVYYCAREGGNDYHDTMDYWGQGTLVTVSS VL: DIQMTQSPSSLSASVGDRVTITCRASQDINSYLSWFQQKPGKAPKTLIYRVNRLVDGVPSRFSGSGSGNDYTLTISSLQPEDFATYYCLQYDAFPYTFGQGTKVEIK	binds
MYT2763 (antibody, V domains shown, IgG) VH: QVQLVQSGAEVKKPGASVKVSCKASGHIFTSSIMAWVRQAPGQGLEWIGYIKPYNDGTKYNEKFKGRATLTSDRSTSTAYMELSSLRSEDTAVYYCAREGGNDYHDTMDYWGQGTLVTVSS VL: DIQMTQSPSSLSASVGDRVTITCRASQDINSYLSWFQQKPGKAPKTLIYRVNRLVDGVPSRFSGSGSGNDYTLTISSLQPEDFATYYCLQYDAFPYTFGQGTKVEIK	binds
MYT2762 (antibody, V domains shown, IgG) VH: QVQLVQSGAEVKKPGASVKVSCKASGYIFTSSIMHWVRQAPGQGLEWIGYIKPYNDGTKYNEKFKGRATLTSDRSTSTAYMELSSLRSEDTAVYYCAREGGNDYYDHMHYWGQGTLVTVSS VL: DIQMTQSPSSLSASVGDRVTITCRASQDINSYLSWFQQKPGKAPKTLIYRVNRLVDGVPSRFSGSGSGNDYTLTISSLQPEDFATYYCLQYDAFPYTFGQGTKVEIK	binds
MYT2761 (antibody, V domains shown, IgG) VH: QVQLVQSGAEVKKPGASVKVSCKASGYIFTSSIMHWVRQAPGQGLEWIGYIKPYNDGTKYNEKFKGRATLTSDRSTSTAYMELSSLRSEDTAVYYCAREGGNDYHDTMHYWGQGTLVTVSS VL: DIQMTQSPSSLSASVGDRVTITCRASQDINSYLSWFQQKPGKAPKTLIYRVNRLVDGVPSRFSGSGSGNDYTLTISSLQPEDFATYYCLQYDAFPYTFGQGTKVEIK	binds
MYT2753 (antibody, V domains shown, IgG) VH: QVQLVQSGAEVKKPGASVKVSCKASGHIFTSSIMAWVRQAPGQGLEWIGYIKPYNDGTKYNEKFKGRATLTSDRSTSTAYMELSSLRSEDTAVYYCAREGGNDYYDTMDYWGQGTLVTVSS VL: DIQMTQSPSSLSASVGDRVTITCRASQDINSYLSWFQQKPGKAPKTLIYRVNRLVDGVPSRFSGSGSGNDYTLTISSLQPEDFATYYCLQYDAFPYTFGQGTKVEIK	binds
MYT1291 (antibody, V domains shown, IgG) VH: QVQLVQSGAEVKKPGASVKVSCKASGYIFTSSIMHWVRQAPGQGLEWIGYIKPYNDGTKYNEKFKGRATLTSDRSTSTAYMELSSLRSEDTAVYYCAREGGNDYYDTMHYWGQGTLVTVSS VL: DIQMTQSPSSLSASVGDRVTITCRASQDINSYLSWFQQKPGKAPKTLIYRVNRLVDGVPSRFSGSGSGNDYTLTISSLQPEDFATYYCLQYDAFPYTFGQGTKVEIK	binds
MYT2755 (antibody, V domains shown, IgG) VH: QVQLVQSGAEVKKPGASVKVSCKASGHIFTSSIMHWVRQAPGQGLEWIGYIKPYNDGTKYNEKFKGRATLTSDRSTSTAYMELSSLRSEDTAVYYCAREGGNDYYDHMDYWGQGTLVTVSS VL: DIQMTQSPSSLSASVGDRVTITCRASQDINSYLSWFQQKPGKAPKTLIYRVNRLVDGVPSRFSGSGSGNDYTLTISSLQPEDFATYYCLQYDAFPYTFGQGTKVEIK	binds
MYT2773 (antibody, V domains shown, IgG) VH: QVQLVQSGAEVKKPGASVKVSCKASGYIFTSSIMHWVRQAPGQGLEWIGYIKPYNDGTKYNEKFKGRATLTSDRSTSTAYMELSSLRSEDTAVYYCAREGGNDYYDTMDYWGQGTLVTVSS VL: DIQMTQSPSSLSASVGDRVTITCHASQDINSYLSWFQQKPGKAPKTLIYRVNRLVDGVPSRFSGSGSGNDYTLTISSLQPEDFATYYCLQYDAFPYTFGQGTKVEIK	binds
MYT2764 (antibody, V domains shown, IgG) VH: QVQLVQSGAEVKKPGASVKVSCKASGHIFTSSIMAWVRQAPGQGLEWIGYIKPYNDGTKYNEKFKGRATLTSDRSTSTAYMELSSLRSEDTAVYYCAREGGNDYYDHMDYWGQGTLVTVSS VL: DIQMTQSPSSLSASVGDRVTITCRASQDINSYLSWFQQKPGKAPKTLIYRVNRLVDGVPSRFSGSGSGNDYTLTISSLQPEDFATYYCLQYDAFPYTFGQGTKVEIK	binds
MYT2774 (antibody, V domains shown, IgG) VH: QVQLVQSGAEVKKPGASVKVSCKASGYIFTSSIMHWVRQAPGQGLEWIGYIKPYNDGTKYNEKFKGRATLTSDRSTSTAYMELSSLRSEDTAVYYCAREGGNDYYDTMDYWGQGTLVTVSS VL: DIQMTQSPSSLSASVGDRVTITCRHSQDINSYLSWFQQKPGKAPKTLIYRVNRLVDGVPSRFSGSGSGNDYTLTISSLQPEDFATYYCLQYDAFPYTFGQGTKVEIK	binds
MYT2754 (antibody, V domains shown, IgG) VH: QVQLVQSGAEVKKPGASVKVSCKASGHIFTSSIMHWVRQAPGQGLEWIGYIKPYNDGTKYNEKFKGRATLTSDRSTSTAYMELSSLRSEDTAVYYCAREGGNDYHDTMDYWGQGTLVTVSS VL: DIQMTQSPSSLSASVGDRVTITCRASQDINSYLSWFQQKPGKAPKTLIYRVNRLVDGVPSRFSGSGSGNDYTLTISSLQPEDFATYYCLQYDAFPYTFGQGTKVEIK	binds
MYT2775 (antibody, V domains shown, IgG) VH: QVQLVQSGAEVKKPGASVKVSCKASGYIFTSSIMHWVRQAPGQGLEWIGYIKPYNDGTKYNEKFKGRATLTSDRSTSTAYMELSSLRSEDTAVYYCAREGGNDYYDTMDYWGQGTLVTVSS VL: DIQMTQSPSSLSASVGDRVTITCRAHQDINSYLSWFQQKPGKAPKTLIYRVNRLVDGVPSRFSGSGSGNDYTLTISSLQPEDFATYYCLQYDAFPYTFGQGTKVEIK	binds
